Experimental data from the RNAGym collection of RNA variant scans (doi:10.1073/pnas.2313332121).

B1: TPR t1 (parent)
chain: GACCAAUCUGCCCUCAGAGCUCGAGAACAUCUUCGGAUGCAGAGGAGGCAGGCUUCGGUGGCGCGAUAGCGCCAACGUCCUCAACCUCCAAUGCAUCCCACCACAUGAUGAUGCCUGAAGAGCCUUGGUUUUUUG

Variants of: B1
Experiment: polymerase ribozyme fitness, log enrichment relative to wild type (log ratio); higher = more active; in vitro selection for triplet polymerase activity
Procedure, shortened: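 Only genotypes with ≥10 input reads and ≥1 read per output were kept after Illumina sequencing of input and output libraries. These libraries were PCR-built, transcribed mutants of each subunit of a heterodimeric triplet polymerase ribozyme, each put through one triplicate in vitro selection round with frozen incubation at −7 °C, gel excision of extended constructs, streptavidin-bead capture and RT-PCR. Fitness is a logarithmic ratio of genotype enrichment to wild-type enrichment, from inverse-variance-weighted replicate averages, with the logarithm in base 2.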

| Variant | polymerase ribozyme fitness (log ratio) |
| --- | --- |
| GACCAAUCUGCUCUCAGAGCUCGAGAACAUCUUCGGAUGCAGAGGAGGCAGGCUUCGGUGGCUCGAUAGCGCCACCGUCCUCAACCUCCAAUGCAUCCCACCACAUGAUGAUGCCUGAAGAGCCUUGGUUUUUUG [C12U G63U A75C] | -0.74 |
| GACCAAUCUGCCCUCAGAGCUCGAGAACAUCUUCGGAUGCAGAGGAGGCAGGCUUCGGUGGCGCGAUAGCGCCAACGUCCUCAACCUCCAAUGCAUCCCACCACAUAAUGAUGCCUGAAGAGCCUUGGUGUUUUG [G107A U130G] | -6.83 |
| GACCAAUCUGCCCUCAGAGCUCGAGAACAUCUUCGGAUGCAGAGGAGGCAGGCUUCGGUGGCGCGAUAGCGCCAACGUCCUCAACCUCCAAUGCCUCCCACCACAUGAUGAUUCCUGAACAGCCAUGGUUUUUUG [A95C G113U G120C U125A] | -3.79 |
| GACCAAUCUGCCCUCAGAGCACGAGAACAUCUUCGGAUUCAGAGGAGGCAGGCUUCGGUGGCGUGAUAGCGCCAACGUCCUCAACCUCCACUGCAUCCCACCACAUGAUGAUGCCUGAAGAGCCUUGGUUUUUUG [U21A G39U C64U A91C] | -2.67 |
| GACCAAUAUGCCCUCAGAGCUCGAGAACAUCUUCGGAUGCAGAGGAGGCAUGCUUCGGUGGCGCGAUAGCGCCAACGUCCUCAACCUCCAAUGCAUCCCACCACAUGAUGAUGCCUGAAGAGCCUUGGUUUUUUG [C8A G51U] | -3.89 |
| GACCAUUCUGCCCUCAGAGCUCGAGAACAUCUUCGGAUGCAGAGCAGGCAGGCUUCGGUGGCGCGAUAGCGGCAACGUCCUCAACCUCCAAUGCAUCCCAUCACAUGAUCAUGCCUGAAGAGCCUUGGUUUUUUG [A6U G45C C72G C101U G110C] | -4.94 |
| GACCAAUCUGCCCUCAGAGCUCGAGAACGUCUUCGGAUGCAGAGGAGGCAGGCUUCGGUGGCGCGAUAGCGCCAACGUCCUCAACCUCCAAUGCAUCCCACCACAUGAUGAUGCCUGAAGAGUCUUGGUUUUUUG [A29G C123U] | -0.36 |
| GACCAAUCAGCCAUCUGAGCUCGAGAACAUCUUGGGAUGCAGAGGAGCCAGGCUUCGGUGGCGCGAUAUCGCCAACGUCUUCAACCUCCAAUGCAUCCCACCACAUGAUGAUGCCUGAAGAGCCUUGGUUUUUUG [U9A C13A A16U C34G G48C G69U C80U] | -4.42 |
| GACCAAUCUGCCCUCAGAGCUCGAGAACAUCUUCGGAUGCAGAGGAGGCAGGCUUCGGUGGCGCGAUAGCGCCAACGUCCUCAACCUCCAAUGCAUCCCAACACAUGAUGAUGCGUGAAGAGCCUUGGUUUCUUG [C101A C115G U132C] | -3.46 |
| GACCAAUCUGCCCUCAGAGCUCGAGAACAUCUUCGGAUGCAGAGGAGGCAGGCUUCGGUGGCGCGAUAGCGCCAACGUCCUCAUCCUCCAAUGCAUCCCACCACAUGAUCAUGCCUGAAGAGCCUUGGUUUUUUG [A84U G110C] | -4.16 |
| GACCAAUCUGCCCUCAGAGCUCGGGAACAUCUUCGGAUGCAGAGGAGGCAGGCUUCGGUGGCGCGAUAGCGCCAACGUCCUCAACCUACAAUGCAUCCCACCACAUGAUGAUGCAUGAAGAGCCUUGGUUUUUUG [A24G C88A C115A] | -1.84 |
| GACCAAUCUGCCCUCAGAGCUCGAGAACAUCUUCGGAUGAAGAGGAGGCAGGCUUCGGUGUCGCGAUAGCGCCAACGUCCUCAACCUCCAAUGCAUCCCACCACAUGAUGAUGCCUGAAGAGCCUUGGUUUUUUG [C40A G61U] | -1.59 |
| GACCAAUCUGCCCUCAGAGCUCGAGGACAUCUUCGGAUGCAGAGGAGGCAGGCUUCGGUGGCGCGAUAGCGCCAACGUCCUCAACCUCCAAUGCAUCCCACCACAUGAUGUUGCCUGAAGAGCCUUGGUUUUUUG [A26G A111U] | -2.41 |
| GACCAAUCUGCCCUCAGAGCUCGAGAACAUCUUCGGAUGCAGAGGAGGGAGGCUUCGGUGGUGCGAUAGCGCCAACGUCCUCAACCUCCAAUGCAUCCCACCACAUGAUGAUUCCUGAAGAGCCUUGGUUUUUUG [C49G C62U G113U] | -4.48 |
| GACCAAUCUGCCAUUAGAGCUCGAGAACAUCUUCGGAUGCAGAGGAGGCAAGCUUCGGUGGCGCGAUAGCGCCAACGUCCUCAACCUCCAAUGUAUCCCACCACAUGAUGAUGCCUGAAGAGCCUUGGUUUUUUG [C13A C15U G51A C94U] | -5.17 |
| GACCAAUCUGCUCUCAGAGCUCGAGAACAUCUUCGGAUGCAGAGGAGGCAGGCUUCGGUGGCGCGAUAGCGCCAACGUCCUCAAUCUCCAAUGCAUCCCACCACAUGAUGACGCCUGAAGAGCCUUGGUUUUUUG [C12U C85U U112C] | 0.732 |
| GACCAAUCCGCCCUCAGAGCUCGAGUACAUCUUCGGAUGCAGAGGAGGCAGGCUUCCGUGGCGCGAUAGCGCCAACGUCCUCAUCCUCCAAUGCAUCCCACCACAUGAUGAUGCCUGAAGAGCCUUGGUUUUUUG [U9C A26U G57C A84U] | -3.11 |
| GACCAAUCUGCCCUCAAAGCUCGAGAACAUCUUCGGAUGCAGAGGAGGCAGGCUUCGGUGGCGCGAUAGCGCCAACGUCCUCAACCUCCAAUGCAUCCCAGCACAUGAUGAUGCCUGAAGAGCCUUGGUUUUUUG [G17A C101G] | -5.5 |
| GACCAAACUGCCCUCAGAGCUCGAGAACAUCUUCGGAUGCAGAGGAGGCAGGCUUCGGUGGCGCGAUAUCGCCAACGUCUUCAACCUCCAAUGCAUCCUACCACAUGAUGAUGCCUGAAGAGCGUUGGUUUUUUG [U7A G69U C80U C99U C124G] | 0.126 |
| GGCCAAUCUGCCUUCAGAGCUCGAGAACAUCUUCGGAUGCAGAGGUGGCAGGCUUCGGUGGAGCGAUAGCGCCAACGUCCUCAACAUCCAAUGCAUCCCACCACAUGAUGAUUCCUGAAUAGGCUUGGUUUUUUG [A2G C13U A46U C62A C86A G113U G120U C123G] | -6.73 |
| GACCAAUCUGCCCUCAGAGCUCGAGAACGUCUUCGGAUGCAGAGGAGGCAGGCUUCGGUGGCGCGAUAGCGCCAACGUCCUCAACCUCCAAUGCAUCCCACCCCAAGAUGAUGCCUGAAGAGCCUUGGUUUUUUG [A29G A103C U106A] | -5.73 |
